Results taken from patent US20240118272A1.

Tests used:
[1] = target: CD81(ECD)-ALP conjugate (human; bovine); assay: HI-1000 capture immunoassay; calibrator C1, 3.45 mU/L; run 1
[2] = target: CD81(ECD)-ALP conjugate (human; bovine); assay: HI-1000 capture immunoassay; calibrator C4, 220.80 mU/L; mean of 3
[3] = target: CD81(ECD)-ALP conjugate (human; bovine); assay: HI-1000 capture immunoassay; calibrator C1, 3.45 mU/L; mean of 3
[4] = target: CD81(ECD)-ALP conjugate (human; bovine); assay: HI-1000 capture immunoassay; calibrator C3, 100 ng/mL; run 1
[5] = target: CD81(ECD)-ALP conjugate (human; bovine); assay: HI-1000 capture immunoassay; calibrator C3, 55.20 mU/L; run 1
[6] = target: CD81(ECD)-ALP conjugate (human; bovine); assay: HI-1000 capture immunoassay; calibrator C4, 220.80 mU/L; run 2
[7] = target: CD81(ECD)-ALP conjugate (human; bovine); assay: HI-1000 capture immunoassay; calibrator C1, 3.45 mU/L; run 2
[8] = target: CD81(ECD)-ALP conjugate (human; bovine); assay: HI-1000 capture immunoassay; calibrator C4, 220.80 mU/L; run 3
[9] = target: CD81(ECD)-ALP conjugate (human; bovine); assay: HI-1000 capture immunoassay; calibrator C1, 4 ng/mL; mean of 3
[10] = target: CD81(ECD)-ALP conjugate (human; bovine); assay: HI-1000 capture immunoassay; calibrator C3, 100 ng/mL; run 2
[11] = target: CD81(ECD)-ALP conjugate (human; bovine); assay: HI-1000 capture immunoassay; calibrator C5, 2500 ng/mL; run 2
[12] = target: CD81(ECD)-ALP conjugate (human; bovine); assay: HI-1000 capture immunoassay; calibrator C2, 13.80 mU/L; mean of 3
[13] = target: CD81(ECD)-ALP conjugate (human; bovine); assay: HI-1000 capture immunoassay; calibrator C5, 883.16 mU/L; run 2
[14] = target: CD81(ECD)-ALP conjugate (human; bovine); assay: HI-1000 capture immunoassay; calibrator C3, 55.20 mU/L; mean of 3
[15] = target: CD81(ECD)-ALP conjugate (human; bovine); assay: HI-1000 capture immunoassay; calibrator C3, 100 ng/mL; run 3
[16] = target: CD81(ECD)-ALP conjugate (human; bovine); assay: HI-1000 capture immunoassay; calibrator C2, 20 ng/mL; run 3
[17] = target: CD81(ECD)-ALP conjugate (human; bovine); assay: HI-1000 capture immunoassay; calibrator C2, 13.80 mU/L; run 1
[18] = target: CD81(ECD)-ALP conjugate (human; bovine); assay: HI-1000 capture immunoassay; calibrator C2, 20 ng/mL; mean of 3
[19] = target: CD81(ECD)-ALP conjugate (human; bovine); assay: HI-1000 capture immunoassay; calibrator C4, 220.80 mU/L; run 1
[20] = target: CD81(ECD)-ALP conjugate (human; bovine); assay: HI-1000 capture immunoassay; calibrator C2, 20 ng/mL; run 2
[21] = target: CD81(ECD)-ALP conjugate (human; bovine); assay: HI-1000 capture immunoassay; calibrator C4, 500 ng/mL; run 2
[22] = target: CD81(ECD)-ALP conjugate (human; bovine); assay: HI-1000 capture immunoassay; calibrator C1, 3.45 mU/L; run 3
[23] = target: CD81(ECD)-ALP conjugate (human; bovine); assay: HI-1000 capture immunoassay; calibrator C5, 883.16 mU/L; mean of 3
[24] = target: CD81(ECD)-ALP conjugate (human; bovine); assay: HI-1000 capture immunoassay; calibrator C2, 13.80 mU/L; run 3
[25] = target: CD81(ECD)-ALP conjugate (human; bovine); assay: HI-1000 capture immunoassay; calibrator C2, 13.80 mU/L; run 2
[26] = target: CD81(ECD)-ALP conjugate (human; bovine); assay: HI-1000 capture immunoassay; calibrator C3, 55.20 mU/L; run 3
[27] = target: CD81(ECD)-ALP conjugate (human; bovine); assay: HI-1000 capture immunoassay; calibrator C1, 4 ng/mL; run 2
[28] = target: CD81(ECD)-ALP conjugate (human; bovine); assay: HI-1000 capture immunoassay; calibrator C5, 883.16 mU/L; run 3
[29] = target: CD81(ECD)-ALP conjugate (human; bovine); assay: HI-1000 capture immunoassay; calibrator C1, 4 ng/mL; run 1
[30] = target: CD81(ECD)-ALP conjugate (human; bovine); assay: HI-1000 capture immunoassay; calibrator C3, 55.20 mU/L; run 2
[31] = target: CD81(ECD)-ALP conjugate (human; bovine); assay: HI-1000 capture immunoassay; calibrator C4, 500 ng/mL; run 1
[32] = target: CD81(ECD)-ALP conjugate (human; bovine); assay: HI-1000 capture immunoassay; calibrator C5, 2500 ng/mL; run 3
[33] = target: CD81(ECD)-ALP conjugate (human; bovine); assay: HI-1000 capture immunoassay; calibrator C3, 100 ng/mL; mean of 3
[34] = target: CD81(ECD)-ALP conjugate (human; bovine); assay: HI-1000 capture immunoassay; calibrator C2, 20 ng/mL; run 1
[35] = target: CD81(ECD)-ALP conjugate (human; bovine); assay: HI-1000 capture immunoassay; calibrator C5, 2500 ng/mL; mean of 3
[36] = target: CD81(ECD)-ALP conjugate (human; bovine); assay: HI-1000 capture immunoassay; calibrator C1, 4 ng/mL; run 3
[37] = target: CD81(ECD)-ALP conjugate (human; bovine); assay: HI-1000 capture immunoassay; calibrator C4, 500 ng/mL; run 3
[38] = target: CD81(ECD)-ALP conjugate (human; bovine); assay: HI-1000 capture immunoassay; calibrator C5, 2500 ng/mL; run 1
[39] = target: CD81(ECD)-ALP conjugate (human; bovine); assay: HI-1000 capture immunoassay; calibrator C4, 500 ng/mL; mean of 3
[40] = target: CD81(ECD)-ALP conjugate (human; bovine); assay: HI-1000 capture immunoassay; calibrator C5, 883.16 mU/L; run 1

Chain of CD81(ECD)-ALP conjugate (human; bovine) (chain, as listed by the source, chain 1 of 2): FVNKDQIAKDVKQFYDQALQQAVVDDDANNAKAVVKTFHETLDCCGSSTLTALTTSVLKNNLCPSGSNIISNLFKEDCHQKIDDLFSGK
Chain of CD81(ECD)-ALP conjugate (human; bovine) (P19111 20-506, chain 2 of 2): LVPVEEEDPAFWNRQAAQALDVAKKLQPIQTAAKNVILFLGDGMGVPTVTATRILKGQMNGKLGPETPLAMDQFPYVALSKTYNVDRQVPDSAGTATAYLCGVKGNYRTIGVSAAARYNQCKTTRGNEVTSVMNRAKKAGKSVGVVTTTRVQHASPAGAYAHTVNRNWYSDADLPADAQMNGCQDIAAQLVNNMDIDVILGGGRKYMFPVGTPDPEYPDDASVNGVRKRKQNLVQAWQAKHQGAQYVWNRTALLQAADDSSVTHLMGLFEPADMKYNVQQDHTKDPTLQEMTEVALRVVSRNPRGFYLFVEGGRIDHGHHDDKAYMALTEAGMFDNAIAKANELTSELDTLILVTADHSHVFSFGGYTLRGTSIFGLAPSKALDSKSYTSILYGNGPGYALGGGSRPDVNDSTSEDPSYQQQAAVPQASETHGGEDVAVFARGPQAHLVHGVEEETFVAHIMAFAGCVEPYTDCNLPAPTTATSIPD

## anti-CD81 antibody (Clone: 5A6)
[1]
  Count value: 1380 count
[2]
  Count value (av): 102000 count
[3]
  Count value (av): 1380 count
[4]
  Count value: 20000 count
[5]
  Count value: 20900 count
[6]
  Count value: 99500 count
[7]
  Count value: 1430 count
[8]
  Count value: 102000 count
[9]
  Count value (av): 1280 count
[10]
  Count value: 20000 count
[11]
  Count value: 496000 count
[12]
  Count value (av): 4620 count
[13]
  Count value: 496000 count
[14]
  Count value (av): 20700 count
[15]
  Count value: 19600 count
[16]
  Count value: 4640 count
[17]
  Count value: 4650 count
[18]
  Count value (av): 4500 count
[19]
  Count value: 105000 count
[20]
  Count value: 4380 count
[21]
  Count value: 100000 count
[22]
  Count value: 1340 count
[23]
  Count value (av): 498000 count
[24]
  Count value: 4610 count
[25]
  Count value: 4600 count
[26]
  Count value: 20900 count
[27]
  Count value: 1300 count
[28]
  Count value: 494000 count
[29]
  Count value: 1270 count
[30]
  Count value: 20400 count
[31]
  Count value: 101000 count
[32]
  Count value: 486000 count
[33]
  Count value (av): 19900 count
[34]
  Count value: 4480 count
[35]
  Count value (av): 494000 count
[36]
  Count value: 1280 count
[37]
  Count value: 99600 count
[38]
  Count value: 498000 count
[39]
  Count value (av): 100000 count
[40]
  Count value: 503000 count
